Experimental data taken from patent US20200222478A1.

What was measured:
Assay in all cases: UV peptide exchange + HLA class I ELISA
Settings in all cases: remark: other sources report otherwise
[1] = target: HLA-A*01:01 (human)
[2] = target: HLA-B*07:02 (human)
[3] = target: HLA-A*24:02 (human)
[4] = target: HLA-A*03:01 (human)
[5] = target: HLA-A*02:01 (human)
[6] = target: HLA-B*08:01 (human)

Row | exchange rate vs Pos peptide [1] | exchange rate vs Pos peptide [2] | exchange rate vs Pos peptide [3] | exchange rate vs Pos peptide [4] | exchange rate vs Pos peptide [5] | exchange rate vs Pos peptide [6] | Binder
1 | 0.1% | 91.5% | -0.5% | 6% | 85.9% |  | YCMAAPMGL (here or on the partner: biotinylated heavy chain) [P76 9-mer peptide (AR-V3 splice variant)]
2 | 1.5% | 12.9% | -0.1% | 58.1% | 6.3% | 1.4% | RVGNCKHLK (here or on the partner: biotinylated heavy chain) [P82 9-mer peptide (AR-V7 splice variant)]
3 | 1.1% | 5% | 0.2% | 2.4% | 64% | 3.1% | FLFLLLPLS (here or on the partner: biotinylated heavy chain) [P87 9-mer peptide (AR-Intron splice variant)]
4 | 2.5% | 7% | 0.1% | 39% | 4.6% | 2.7% | LMAQRLLLR (here or on the partner: biotinylated heavy chain) [P97 9-mer peptide (FOXRED2-TXN2 fusion)]
5 | 2.5% | 6.7% | -0.1% | 51.1% | 7.9% | 2.4% | IVWWCPMSR (here or on the partner: biotinylated heavy chain) [P98 9-mer peptide (TP53 (R213D) frameshift)]
6 |  | 8.7% | 0.5% | 3.5% | 89.2% | 2.6% | LLERNSFEV (here or on the partner: biotinylated heavy chain) [P73 9-mer peptide (TP53 (G266E))]

Second part, the binder before the results:

Row | Binder | exchange rate vs Pos peptide [1] | exchange rate vs Pos peptide [2] | exchange rate vs Pos peptide [3] | exchange rate vs Pos peptide [4] | exchange rate vs Pos peptide [5] | exchange rate vs Pos peptide [6]
7 | RAVRRMNTF (here or on the partner: biotinylated heavy chain) [P17 9-mer peptide (MSMB-NOCA4 fusion)] | 4.9% | 38.7% | 0.1% | 3.8% |  | 
8 | IPVLTRWPL (here or on the partner: biotinylated heavy chain) [P19 9-mer peptide (TMEM222-LOC644961 fusion)] | 5.2% | 91.3% | 0.1% | 4.1% | 8.2% | 14.5%
9 | QLIAMDSAI (here or on the partner: biotinylated heavy chain) [P22 9-mer peptide (SLC45A3-ELK4 fusion)] | 4.4% | 8.3% | 0% | 4.8% | 46.9% | 3.9%
10 | CPMSRLRLA (here or on the partner: biotinylated heavy chain) [P46 9-mer peptide (TP53 (R213D) frameshift)] | 2.4% | 64.8% | -0.4% | 10.3% | 14.4% | 14.5%
11 | YQFTFDLLI (here or on the partner: biotinylated heavy chain) [P48 9-mer peptide (AR.p.H875Y)] | 4.3% | 12.8% | 0.1% | 4.4% | 99.3% | 
12 | RAKCKFSIL (here or on the partner: biotinylated heavy chain) [P56 9-mer peptide (SPOP(F102C))] | 2.6% | 82.5% | 0.5% | 6.8% | 8.4% | 38%
13 | HVPKILSGK (here or on the partner: biotinylated heavy chain) [P58 9-mer peptide (AR (Q903H))] | 2.5% |  | 0.2% | 32.5% | 11.8% | 5.3%
14 | YLRRQKRLK (here or on the partner: biotinylated heavy chain) [P60 9-mer peptide (FOXA1.p.F266L)] | 3.1% | 6.1% | 0.9% | 36.6% | 7.9% | 10.2%
15 | CYLGRQKRF (here or on the partner: biotinylated heavy chain) [P61 9-mer peptide (FOXA1.p.R261G)] | 1.7% |  | 90.3% |  | 5.8% | 3.6%
